Earlier results in patent publication US6126956A, “Subcutaneous implant” (priority 1998, dated 2000).
Like-named read-outs stand apart in the source and are kept apart here.

Conditions: coated EVA with hole in one face, or coated hemisphere with exposed cavity

Substance	release kinetics from prior polymer devices	release kinetics from prior polymer devices (listed as insulin)
albumin	zero order kinetics	–
Insulin	near constant release rates	zero order kinetics
